Assay results as given in the NTF2 design screens of Basanta et al. (2020).

Test: protease stability score; higher = more stable; yeast display proteolysis, trypsin and chymotrypsin;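 also: log10 excess protease needed over predicted unfolded state with 0 meaning unfolded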

First: NEEQAKRLAEKWIRAVENGNVDELRKLGKPDMEVVAVNEKAKGVDTVHKYMKKFTDRGVELKVDRAKNTGGRVRYTVRARYGGQELTAEVVIDIKDGKVDKVEFRVDERQAQYVLRG
Second: NEEQLERVVKKWMEAVENADSKKVKELLKPDAEVQFGNRTVKGVDELVKYVKKFMDMGVELEVKEHKVEGGRARYQVVATYGGQTVTAQLTIQAKNGKIEKIEFRDNEEVQTLEKQG
The protease stability score of the first is lower: 0.812 for the first, 0.988 for the second.

Compared with “REEDVEKVIRTLLQAVHEGNPDKIRKYLKPDVEVQYADQKFKGPDEIMKLMRRMVRKGYRVQIKEQHVEGDTATTRADYQMGDKQVTVEVTAEAENGKLKHAEIKMSPQFEEIVKKG”, “SEEELRKVVEKLLTYVIEGNPDDVKKYISPNVQVRYFDKTVQGRDEVMKFLRRAKKHGYRLQAKHVQLEGDRATTELDYQAGDQEATVRVEATVNGGRLEKLEVRDSPKVKKVLKDG” is higher in protease stability score: 1.49 for the first, 1.56 for the second.

Going from “SEEQVEKLVKVMFRAVQNGNKDEVKKYGKSSGQFVFGSDRVEGVDQYVKKLKEVHDRGVQFEFKKFQVKDDTVTMETEVHYGNKTFRVTAQAKYDGGTLDRARVEISEEAKEAYKQG” to “SEERAKKVAKKLMEAFVKGNKDDAKDALQEDVQLHIAGTTYHGPKAVEKLIEFWQRVGVEVKVQEVRVKGNHVEIQTQVHLGDNTTTVRYKIQVEGDKVKKLQLNFSEEVFKQAKDG”, the protease stability score rises from 0.368 to 1.76.

For “TEEDVLKVLETLMKAFFDGNPKEVKEMGKEDVKFQVGDQEVRGVDQMTKRVKEYRDQGIEFHLKRYKVEGDQVTAEAEVVMGDKKARVTAHYKADDGRVDETRVEMSDEAKKLFKHG”, the protease stability score was 0.432.
